The values below come from article PMC3057501 (Molecular cell, 2011).

This series deals with the molecule itself. As to the kind of experiment: SEC-MALS. For orientation: Size exclusion chromatography separates by hydrodynamic size, large species first.

The term stoichiometry N denotes a count of units in the complex or per binding partner.

B1: human PAPD1 (residues 44-538), wild type (enzyme, UniProt Q9NVV4 44-538, looked up)
chain: EQPSGSVETGFEDKIPKRRFSEMQNERREQAQRTVLIHCPEKISENKFLKYLSQFGPINNHFFYESFGLYAVVEFCQKESIGSLQNGTHTPSTAMETAIPFRSRFFNLKLKNQTSERSRVRSSNQLPRSNKQLFELLCYAESIDDQLNTLLKEFQLTEENTKLRYLTCSLIEDMAAAYFPDCIVRPFGSSVNTFGKLGCDLDMFLDLDETRNLSAHKISGNFLMEFQVKNVPSERIATQKILSVLGECLDHFGPGCVGVQKILNARCPLVRFSHQASGFQCDLTTNNRIALTSSELLYIYGALDSRVRALVFSVRCWARAHSLTSSIPGAWITNFSLTMMVIFFLQRRSPPILPTLDSLKTLADAEDKCVIEGNNCTFVRDLSRIKPSQNTETLELLLKEFFEYFGNFAFDKNSINIRQGREQNKPDSSPLYIQNPFETSLNISKNVSQSQLQKFVDLARESAWILQQEDTDRPSISSNRPWGLVSLLLPSAPNR
Consider B1, for which the “stoichiometry N” value was 2.
